Laboratory results as given in US20100260763A1 (DOMANTIS, published 2010).

Tests used:
[1] = target: T1, human TNFR1, soluble recombinant protein (human, UniProt P19438 22-211, limits assumed, biotinylated in the BIAcore assays (coupling via primary amines)); assay: phage ELISA, plate coated with 1 nM TNFR1, anti-M13-HRP; trypsin 1 mg/ml 1 h room temp; phage input 5.64E+09
T1 construct: also called biotinylated TNFR1; human recombinant E. coli-expressed human TNFR1
T1 sequence (looked up): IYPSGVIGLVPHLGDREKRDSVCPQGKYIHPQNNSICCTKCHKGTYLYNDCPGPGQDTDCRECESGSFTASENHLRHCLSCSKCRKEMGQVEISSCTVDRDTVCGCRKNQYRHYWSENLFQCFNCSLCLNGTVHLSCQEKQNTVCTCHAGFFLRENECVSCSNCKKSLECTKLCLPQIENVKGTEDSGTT

[2] = target: T1, human TNFR1, soluble recombinant protein; assay: phage ELISA, plate coated with 1 nM TNFR1, anti-M13-HRP; trypsin 0 µg/ml; phage input 2.26E+10
[3] = target: T1, human TNFR1, soluble recombinant protein; assay: phage ELISA, plate coated with 1 nM TNFR1, anti-M13-HRP; trypsin 0 µg/ml; phage input 1.13E+10
[4] = target: T1, human TNFR1, soluble recombinant protein; assay: phage ELISA, plate coated with 1 nM TNFR1, anti-M13-HRP; trypsin 1 mg/ml 1 h room temp; phage input 4.51E+10
[5] = target: T1, human TNFR1, soluble recombinant protein; assay: phage ELISA, plate coated with 1 nM TNFR1, anti-M13-HRP; trypsin 0 µg/ml; phage input 2.82E+09
[6] = target: T1, human TNFR1, soluble recombinant protein; assay: phage ELISA, plate coated with 1 nM TNFR1, anti-M13-HRP; trypsin 1 mg/ml 1 h room temp; phage input 1.41E+09
[7] = target: T1, human TNFR1, soluble recombinant protein; assay: phage ELISA, plate coated with 1 nM TNFR1, anti-M13-HRP; trypsin 0 µg/ml; phage input 3.52E+08
[8] = target: T1, human TNFR1, soluble recombinant protein; assay: phage ELISA, plate coated with 1 nM TNFR1, anti-M13-HRP; trypsin 1 mg/ml 1 h room temp; phage input 3.52E+08
[9] = target: T1, human TNFR1, soluble recombinant protein; assay: phage ELISA, plate coated with 1 nM TNFR1, anti-M13-HRP; trypsin 0 µg/ml; phage input 4.51E+10
[10] = target: T1, human TNFR1, soluble recombinant protein; assay: phage ELISA, plate coated with 1 nM TNFR1, anti-M13-HRP; trypsin 100 µg/ml 1 h room temp; phage input 4.51E+10
[11] = target: T1, human TNFR1, soluble recombinant protein; assay: phage ELISA, plate coated with 1 nM TNFR1, anti-M13-HRP; trypsin 100 µg/ml 1 h room temp; phage input 1.13E+10
[12] = target: T1, human TNFR1, soluble recombinant protein; assay: phage ELISA, plate coated with 1 nM TNFR1, anti-M13-HRP; trypsin 0 µg/ml; phage input 5.64E+09
[13] = target: T1, human TNFR1, soluble recombinant protein; assay: phage ELISA, plate coated with 1 nM TNFR1, anti-M13-HRP; trypsin 0 µg/ml; phage input 7.05E+08

Q: How did the phage ELISA read-out [1] turn out when DOM1h-131 displayed on phage was run?
A: 0.133

Q: What about the phage ELISA read-out [2] of the same substance?
A: 0.944

Q: What about the phage ELISA read-out [3] of the same substance?
A: 0.949

Q: What about the phage ELISA read-out [4] of the same substance?
A: 0.284

Q: And the phage ELISA read-out [5]?
A: 0.946

Q: What about the phage ELISA read-out [6] of the same substance?
A: 0.089

Q: And the phage ELISA read-out [7]?
A: 0.577

Q: What about the phage ELISA read-out [8] of the same substance?
A: 0.08

Q: What about the phage ELISA read-out [9] of the same substance?
A: 0.916

Q: And the phage ELISA read-out [10]?
A: 0.418

Q: What about the phage ELISA read-out [11] of the same substance?
A: 0.284

Q: And the phage ELISA read-out [12]?
A: 0.962

Q: And the phage ELISA read-out [13]?
A: 0.705
